5 molecules from article PMC4192540, “Targeted In Vivo Inhibition of Specific Protein–Protein Interactions Using Recombinant Antibodies” (PLoS ONE, 2014) can be followed below.

What all share (details): partners not purified
The target in test [1] is T1, ARABIDOPSIS … PHOSPHOTRANSFER PROTEIN 4, Gal4 activation domain fusion (Arabidopsis thaliana (Mouse-ear cress)., UniProt Q9LU15).
T1 construct: ARABIDOPSIS … PHOSPHOTRANSFER PROTEIN 4 (AHP4), A. thaliana; also called AHP4; source: yeast two-hybrid fusion (pGADT7-DEST, S. cerevisiae PJ69-4A)
T1 sequence (Q9LU15 whole entry, the tested form may be a part): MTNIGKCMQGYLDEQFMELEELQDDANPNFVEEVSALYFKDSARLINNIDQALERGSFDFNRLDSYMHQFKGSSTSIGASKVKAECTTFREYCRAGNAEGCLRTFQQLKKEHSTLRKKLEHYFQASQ
As to the kind of experiment: two-hybrid; recombinant antibodies as Gal4 DNA BD fusions (pGBKT7), AHP proteins as Gal4 AD fusions (pGADT7-DEST); S. cerevisiae PJ69-4A; growth after 3 days at 30°C on media lacking Leu, Trp and His or Ade; 1-5 mM 3-Amino-1,2,4-triazole for stringent selection.

The target in test [2] is T2, ARABIDOPSIS … PHOSPHOTRANSFER PROTEIN 1, Gal4 activation domain fusion (Arabidopsis thaliana (Mouse-ear cress)., UniProt Q9ZNV9).
T2 construct: ARABIDOPSIS … PHOSPHOTRANSFER PROTEIN 1 (AHP1), A. thaliana; also called AHP1; source: yeast two-hybrid fusion (pGADT7-DEST, S. cerevisiae PJ69-4A)
T2 sequence (Q9ZNV9 whole entry, the tested form may be a part): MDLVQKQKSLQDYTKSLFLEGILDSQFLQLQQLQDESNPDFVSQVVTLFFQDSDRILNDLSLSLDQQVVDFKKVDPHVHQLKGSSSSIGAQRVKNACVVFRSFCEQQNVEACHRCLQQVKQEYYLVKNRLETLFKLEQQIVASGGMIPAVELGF
The test is described as above.

Test [3] deals with T3, ARABIDOPSIS … PHOSPHOTRANSFER PROTEIN 5, Gal4 activation domain fusion (A. thaliana, UniProt Q8L9T7).
T3 construct: ARABIDOPSIS … PHOSPHOTRANSFER PROTEIN 5 (AHP5), A. thaliana; also called AHP5; source: yeast two-hybrid fusion (pGADT7-DEST, S. cerevisiae PJ69-4A)
T3 sequence (Q8L9T7 whole entry, the tested form may be a part): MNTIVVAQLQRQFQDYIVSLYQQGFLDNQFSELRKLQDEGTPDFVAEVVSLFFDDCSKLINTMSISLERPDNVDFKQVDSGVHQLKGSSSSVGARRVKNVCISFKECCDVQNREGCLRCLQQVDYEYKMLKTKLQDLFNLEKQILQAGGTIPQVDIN
The test is described as above.

Test [4] concerns the target T4, ARABIDOPSIS … PHOSPHOTRANSFER PROTEIN 3, Gal4 activation domain fusion (A. thaliana, UniProt Q9SAZ5).
T4 construct: ARABIDOPSIS … PHOSPHOTRANSFER PROTEIN 3 (AHP3), A. thaliana; also called AHP3; source: yeast two-hybrid fusion (pGADT7-DEST, S. cerevisiae PJ69-4A)
Described as above.

The target in test [5] is T5, ARABIDOPSIS … PHOSPHOTRANSFER PROTEIN 2, Gal4 activation domain fusion (A. thaliana, UniProt Q9ZNV8).
T5 construct: ARABIDOPSIS … PHOSPHOTRANSFER PROTEIN 2 (AHP2), A. thaliana; also called AHP2; source: yeast two-hybrid fusion (pGADT7-DEST, S. cerevisiae PJ69-4A)
T5 sequence (Q9ZNV8 whole entry, the tested form may be a part): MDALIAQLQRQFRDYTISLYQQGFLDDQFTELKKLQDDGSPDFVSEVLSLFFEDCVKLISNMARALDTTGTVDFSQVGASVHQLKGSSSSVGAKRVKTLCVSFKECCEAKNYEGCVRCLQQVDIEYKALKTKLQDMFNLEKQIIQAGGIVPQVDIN
The description is as above.

For test [6], the target named is T6, ARABIDOPSIS … PHOSPHOTRANSFER PROTEIN 6, Gal4 activation domain fusion (Arabidopsis thaliana (Mouse-ear cress)., UniProt Q9SSC9).
T6 construct: ARABIDOPSIS … PHOSPHOTRANSFER PROTEIN 6 (AHP6), A. thaliana; also called AHP6; source: yeast two-hybrid fusion (pGADT7-DEST, S. cerevisiae PJ69-4A)
T6 sequence (Q9SSC9 whole entry, the tested form may be a part): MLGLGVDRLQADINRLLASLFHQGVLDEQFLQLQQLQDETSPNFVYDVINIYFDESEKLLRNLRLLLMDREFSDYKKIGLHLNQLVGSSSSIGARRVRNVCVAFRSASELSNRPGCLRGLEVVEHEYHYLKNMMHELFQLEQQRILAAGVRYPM
The test is described as above.

The next test addresses T7, AHP3:cYFP (Arabidopsis thaliana (Mouse-ear cress)., UniProt Q9SAZ5).
T7 construct: ARABIDOPSIS … PHOSPHOTRANSFER PROTEIN 3 (AHP3), A. thaliana; source: A. thaliana Col-0 mesophyll protoplasts, transfected; not shown: C-terminal fragment of YFP (cYFP), C-terminal, kept
As to the kind of experiment: split reporter (BiFC, NanoBiT); bimolecular fluorescent complementation with split YFP in A. thaliana Col-0 mesophyll protoplasts, 16 h at room temperature, confocal microscopy.

The next test addresses T8, cYFP:CKI1 RD (Arabidopsis thaliana, UniProt O22267).
T8 construct: CYTOKININ INDEPENDENT … KINASE 1 (CKI1), A. thaliana, receiver domain; source: A. thaliana mesophyll protoplasts, co-transformed; not shown: C-terminal fragment of YFP (cYFP), N-terminal, kept
The test is described as above.

In test [7] the target is T4, ARABIDOPSIS … PHOSPHOTRANSFER PROTEIN …. Description: two-hybrid; yeast three-hybrid: receiver domain as Gal4 BD fusion, AHP proteins as Gal4 AD fusions, scFv hB7A expressed ectopically from pY3HS or empty pY3HS; S. cerevisiae PJ69-4A; media lacking Leu, Trp, Ura and His or Ade, or with 1 mM 3-Amino-1,2,4-triazole.
Test [8] has as its target T9, recombinant ARABIDOPSIS … PHOSPHOTRANSFER PROTEIN 3 with 6x-His-tag (Arabidopsis thaliana (Mouse-ear cress)., UniProt Q9SAZ5).
T9 construct: ARABIDOPSIS … PHOSPHOTRANSFER PROTEIN 3 (AHP3), A. thaliana; also called AHP3; AHP3 antigen; source: purified
As to the kind of experiment: far-Western, overlay or dot blot; total protein extracts of bacterially expressed AHP proteins separated by SDS-PAGE and blotted on PVDF; periplasmic extract with the scFv diluted 1:2 in blocking buffer (5% skimmed milk, TBS, 0.1% Tween-20), 1 h; detected by anti-c-myc-tag antibody.

T7 sequence (Q9SAZ5 whole entry, the tested form may be a part): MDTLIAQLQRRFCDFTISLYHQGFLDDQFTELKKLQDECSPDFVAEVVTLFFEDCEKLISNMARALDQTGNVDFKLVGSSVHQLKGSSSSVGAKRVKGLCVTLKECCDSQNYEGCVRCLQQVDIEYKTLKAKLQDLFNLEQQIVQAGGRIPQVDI
T4 sequence (Q9SAZ5 whole entry, the tested form may be a part): as above
T9 sequence (Q9SAZ5 whole entry): as the sequence (Q9SAZ5 whole entry, the tested form may be a part) above
T8 sequence (O22267 whole entry, looked up, the tested form may be a part): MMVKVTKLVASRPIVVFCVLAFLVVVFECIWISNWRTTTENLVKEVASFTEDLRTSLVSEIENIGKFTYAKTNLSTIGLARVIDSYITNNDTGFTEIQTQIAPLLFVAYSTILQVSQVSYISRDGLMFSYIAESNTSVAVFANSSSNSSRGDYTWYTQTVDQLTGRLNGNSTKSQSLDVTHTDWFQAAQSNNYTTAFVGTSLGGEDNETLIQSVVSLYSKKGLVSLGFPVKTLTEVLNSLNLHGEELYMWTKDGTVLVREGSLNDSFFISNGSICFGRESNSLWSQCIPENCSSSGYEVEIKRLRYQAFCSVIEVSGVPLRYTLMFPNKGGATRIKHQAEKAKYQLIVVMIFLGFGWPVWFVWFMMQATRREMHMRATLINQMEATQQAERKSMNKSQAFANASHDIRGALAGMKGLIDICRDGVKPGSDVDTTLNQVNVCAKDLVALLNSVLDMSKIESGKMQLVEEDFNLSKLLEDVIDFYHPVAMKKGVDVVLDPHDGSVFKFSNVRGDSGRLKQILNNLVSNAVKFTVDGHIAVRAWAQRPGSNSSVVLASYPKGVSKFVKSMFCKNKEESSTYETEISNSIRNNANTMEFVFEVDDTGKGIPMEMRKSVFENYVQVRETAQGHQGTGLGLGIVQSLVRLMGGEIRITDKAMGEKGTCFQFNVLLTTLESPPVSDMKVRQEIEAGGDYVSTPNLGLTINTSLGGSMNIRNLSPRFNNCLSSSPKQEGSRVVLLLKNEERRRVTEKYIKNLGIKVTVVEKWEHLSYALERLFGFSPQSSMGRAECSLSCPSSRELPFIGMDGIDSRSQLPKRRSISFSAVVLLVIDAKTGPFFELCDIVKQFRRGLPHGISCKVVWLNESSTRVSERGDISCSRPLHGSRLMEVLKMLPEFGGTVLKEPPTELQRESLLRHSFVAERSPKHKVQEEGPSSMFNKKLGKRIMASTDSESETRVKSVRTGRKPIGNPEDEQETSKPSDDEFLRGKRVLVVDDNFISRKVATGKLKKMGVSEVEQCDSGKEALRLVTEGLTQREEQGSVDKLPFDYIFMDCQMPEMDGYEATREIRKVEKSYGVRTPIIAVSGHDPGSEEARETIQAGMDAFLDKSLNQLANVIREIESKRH

B1: scFv hB7A, Gal4 DNA binding domain fusion (scFv, V domains shown)
VH: EVQLLESGGGLVQPGGSLRLSCAASGFTFSFYRMSWVRQAPGKGLEWVSAISGSGGSTYYADSVKGRFTISRDNSKNTLYLQMNSLRAEDTAVYYCAKRVLTFDYWGQGTLVTVSS
VL: DIQMTQSPSSLSASVGDRVTITCRASQSIRKRLNWYQQKPGKAPKLLIYAASSLQSGVPSRFSGSGSGTDFTLTISSLQPEDFATYYCQQSYSTPPTFGQGTKVEIK
notes: selected from Human Single Fold scFv Library A+B; cloned between NcoI and NotI of pGBKT7; source: yeast two-hybrid fusion (pGBKT7, S. cerevisiae PJ69-4A)
Regarding B1, the binding result in [1] is “no binding”; in test [2], “no binding”; in [3], “no binding”; in [4], “binds”; in [5], “no binding”; in [6] it was “no binding”.

B2: nYFP:scFv-hB7A (scFv, V domains shown)
VH: B1 VH
VL: B1 VL
notes: sub-cloned from pY3HS with BglII and EcoRI, so the StrepTag II of the cassette may be carried along (surmise); source: A. thaliana Col-0 mesophyll protoplasts, transfected; not shown: N-terminal fragment of YFP (nYFP), N-terminal, kept
On to B2, for which the binding result with AHP3:cYFP was “binds”; in the test with cYFP:CKI1 RD, “no binding”.

B3: scFv hB7A, ectopic expression from pY3HS (scFv, V domains shown)
VH: B1 VH
VL: B1 VL
notes: source: S. cerevisiae PJ69-4A, ectopic expression from pY3HS
On to B3, for which the binding result in test [7] was “binds”.

B4: scFv hB7A with C-terminal c-myc-tag (scFv, V domains shown)
VH: B1 VH
VL: B1 VL
notes: source: E. coli BL21(DE3), periplasmic extract; purified (ammonium sulfate, Protein L column); not shown: c-myc-tag, C-terminal, kept
Take B4: in [8], the binding result was “binds”.

B5: scFv-hB7A:nYFP (scFv, V domains shown)
VH: B1 VH
VL: B1 VL
notes: sub-cloned from pY3HS with BglII and EcoRI, so the StrepTag II of the cassette may be carried along (surmise); source: A. thaliana Col-0 mesophyll protoplasts, transfected; not shown: N-terminal fragment of YFP (nYFP), C-terminal, kept
For B5, the binding result with AHP3:cYFP is recorded as “binds”.
